Assay results as given in US6165732A, “Method for identifying apoptosis modulating compounds” (Washington University, priority 1998, dated 2000).

Legend:
Bcl-2 channel = biological target: T1, Bcl-2 channel (Mus musculus, UniProt P10417); assay: Effect of Bax death agonist peptide on Bcl-2 channel in planar lipid bilayer; format: biochemical, murine; settings: for effect on conductance pattern of Bcl-2 channel: 20 to 100 μM; for effect on ion selectivity of Bcl-2 channel: peptide added to Bcl-2 channel
T1 construct: proteoliposomes fused to planar lipid bilayer
Description: The Bax and Bcl-2 polypeptides used in the ion channel studies reported herein were recombinant murine Bcl-2 and Bax polypeptides lacking the C-terminal signal-anchor membrane targeting sequence (Bcl-2ΔC21, amino acids 1-218 of SEQ ID NO:9 and BaxΔC19, amino acids 1-173 of SEQ ID NO:6). These deletion derivatives, also referred to herein as BaxΔTM and Bcl-2ΔTM, were used to avoid any interference of the C-terminal signal-anchor membrane targeting sequence with the capacity of internal α helices to mediate insertion into artificial lipid bilayers.
Proteoliposomes for fusion with a planar lipid bilayer were prepared as follows. Purified protein (0.25 μg) was added to […] lipid (Azolectin) in 20 μl of KCl buffer (150 mM KCl, 10 mM HEPES, pH 7.0). This mixture was placed into a dialysis bag with a molecular weight cutoff of 12 KDa. After 16 hours dialysis in 3000 volumes of 150 mM KCl (10 mM HEPES, pH 7.0) the proteoliposome suspension was removed and placed on ice for immediate use. The bilayer was set up with a 450:150 cis to trans KCl gradient to identify the ion selectivity of the initial currents. Fusion was initiated by adding 5-20 μl of lipid vesicles (only 5-20 ng of protein) to the cis bilayer chamber with mixing. Non-fused proteoliposomes were removed from the compartments and solutions exchanged as described above.
Control bilayers containing Bcl-2 or Bax channels were prepared by fusion of unilamellar proteoliposomes with incorporated Bcl-2ΔTM or BaxΔTM with an established planar bilayer as described in Example 4. Test bilayers containing Bcl-2 channels were prepared in the same manner to which an 11 mer Bax peptide (SEQ ID NO:1) with known death agonist activity was added at 20, 50 or 100 μM. A voltage of 80 mV was applied to each control and test channel and its conductance measured for a period of 12 to 16 seconds and the frequency that each channel was measured at a particular conductance level (pA) was calculated. The data, representing about 500,000 measurements, are shown as histograms in FIGS. 8A-8E.
Bilayers containing Bcl-2 and Bax channels were prepared as described in Example 4 with 150 mM KCl on both sides of the bilayer. The death agonist peptide was added to the cis side of a Bcl-2 channel at 150 μM. The voltage dependence of the currents and the ion selectivity for the Bcl-2 channel in the absence and presence of the death agonist peptide, as well as the Bax channel were determined and the data are shown in FIGS. 9A-C.

Bax channel = assay: Effect of Bax 11-mer peptide on Bax channel in planar lipid bilayer; format: biochemical, murine; settings: 20 to 100 μM
[1] = Channel forming activity of peptide in planar lipid bilayers which lack BCL-2 related proteins; format: biochemical; settings: bilayers lacking BCL-2 related proteins
cell death = settings: known activity; cited from earlier work

T1 sequence (P10417 1-218): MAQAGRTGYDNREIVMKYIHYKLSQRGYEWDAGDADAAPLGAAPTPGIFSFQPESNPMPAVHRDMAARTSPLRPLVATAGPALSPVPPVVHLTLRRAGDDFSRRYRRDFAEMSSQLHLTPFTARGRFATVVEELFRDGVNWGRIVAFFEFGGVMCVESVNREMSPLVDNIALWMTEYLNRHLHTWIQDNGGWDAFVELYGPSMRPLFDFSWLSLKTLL

Question: With ECLKRIGDELD [Bax 11mer peptide] as the sequence, how does the “single remaining conductance peak of Bcl-2 channel” value (Bcl-2 channel; 100 μM peptide, 80 mV) read?
Answer: about 65 pA

Question: What about the “pK/pCl of Bcl-2 channel with peptide” value (Bcl-2 channel; 150 μM peptide, cis side) of the same sequence?
Answer: 0.26±0.05

Question: And the “slope of Bcl-2 channel current at negative potentials” value (Bcl-2 channel; 150 μM peptide, symmetrical 150 mM KCl)?
Answer: linear and intermediate between that of Bcl-2 and Bax alone

Question: And the “effect on rectification of Bcl-2 channel” value (Bcl-2 channel; 150 μM peptide, symmetrical 150 mM KCl, listed as death agonist peptide)?
Answer: imparted rectification

Question: What about the “effect on conductance pattern of Bcl-2 channel” value (Bcl-2 channel) of the same sequence?
Answer: a simpler single channel conductance pattern

Question: What about the “effect on conductance pattern of Bcl-2 channel” value (Bcl-2 channel; listed as 11 mer Bax peptide) of the same sequence?
Answer: changes its characteristic conductance pattern in a progressive manner

Question: What about the “effect on ion selectivity of Bcl-2 channel” value (Bcl-2 channel) of the same sequence?
Answer: Cl^- selectivity

Question: What about the “effect on ion selectivity of Bcl-2 channel” value (Bcl-2 channel; listed as death agonist peptide) of the same sequence?
Answer: reversed the ion selectivity of the Bcl-2 channel

Question: And the “effect on activity of Bax channels” value (Bax channel)?
Answer: not affected

Question: And the channel forming activity [1]?
Answer: no channel forming activity

Question: What about the “cell death induction (known)” value (cell death) of the same sequence?
Answer: known to induce cell death
